Residue numbers refer to the chain shown, from its start.

The values that follow come from paper PMC12412624, “Engineered Cas12j‐8 is a Versatile Platform for Multiplexed Genome Modulation in Mammalian Cells”.

In data set [1] the test system is T1, dCas12j-8 E258R+D495R+D527R E258R;D495R;D527R;D369A;E567A;D658A (bacteriophage (metagenome)).
T1 sequence: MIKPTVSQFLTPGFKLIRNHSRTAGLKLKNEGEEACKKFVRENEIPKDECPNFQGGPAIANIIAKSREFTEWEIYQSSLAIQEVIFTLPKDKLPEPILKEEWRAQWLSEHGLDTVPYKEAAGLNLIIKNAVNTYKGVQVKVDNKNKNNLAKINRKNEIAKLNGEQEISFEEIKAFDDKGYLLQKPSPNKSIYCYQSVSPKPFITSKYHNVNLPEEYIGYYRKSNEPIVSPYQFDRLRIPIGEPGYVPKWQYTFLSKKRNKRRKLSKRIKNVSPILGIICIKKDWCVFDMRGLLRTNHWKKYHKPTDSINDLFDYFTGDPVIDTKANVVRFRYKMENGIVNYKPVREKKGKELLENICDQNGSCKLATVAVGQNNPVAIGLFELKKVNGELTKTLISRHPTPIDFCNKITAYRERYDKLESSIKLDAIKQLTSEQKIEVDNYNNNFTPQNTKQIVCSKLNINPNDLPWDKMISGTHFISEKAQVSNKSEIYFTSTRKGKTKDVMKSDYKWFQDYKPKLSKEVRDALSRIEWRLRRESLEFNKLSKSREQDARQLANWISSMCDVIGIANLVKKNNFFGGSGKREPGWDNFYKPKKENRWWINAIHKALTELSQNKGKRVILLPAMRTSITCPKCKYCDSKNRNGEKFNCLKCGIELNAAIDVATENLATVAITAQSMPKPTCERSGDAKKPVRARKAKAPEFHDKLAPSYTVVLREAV
The conditions noted are these: HEK293T cells; panel 1e (compare within a panel only); scale: mean GFP / mean GFP of wild type, printed, no background subtraction.

Data set [2] deals with T2, dCas12j-8 E258R+D495R E258R;D495R;D369A;E567A;D658A (bacteriophage (metagenome)).
T2 sequence: T1 sequence with R527D
The conditions noted are these: HEK293T cells; panel 1d (compare within a panel only); scale: mean GFP / mean GFP of wild type, printed, no background subtraction.

The subject of data set [3] is T3, dCas12j-8 E100R E100R;D369A;E567A;D658A (bacteriophage (metagenome)).
T3 sequence: T1 sequence with E100R, R258E, R495D, R527D
The conditions noted are these: HEK293T cells; panel 1c (compare within a panel only); scale: mean GFP / mean GFP of wild type, printed, no background subtraction.

Turning to “CUUUCAAGACUAAUAGAUUGCUCCUUACGAGGAGACACUCCCUAUCAGUGAUAGAG / TTNACTCCCTATCAGTGATAGAG / CTCTATCACTGATAGGGAGTNAA [TetO]”, the binding signal in data set [1] turned out to be 3.63; in data set [2], 3.18; in data set [3], 0.834.
